Experimental data from patent US20110059082A1 (BIOTEST, published 2011).

These binders were tested against T1, soluble CD4 (human, UniProt P01730 26-396, limits assumed) (assay: competitive ELISA, inhibition of biotinylated mB-F5 binding to coated soluble CD4, 37 °C 2 hours).
T1 construct: The assay paragraph says only 'soluble CD4'
Method: Culture supernatants of transfectomas producing the four versions of hB-F5 were collected, and concentrated. The different antibodies were purified from culture supernatants by affinity chromatography using protein A Sepharose and assessed for their CD4 binding activity by measuring, by means of competitive ELISA, their inhibitory activities against the binding of biotinylated mB-F5 to soluble CD4 coated on microtiter plates. Incubation, time is 2 hours for 37° C. and overnight for 4° C.

Relative binding activity (% of mB-F5) | Binder
30 % of mB-F5 | humanized B-F5 H37L/L4L (antibody, V domains shown, expressed in Sp2/0, purified on protein A; also called H37L/L4L IgG1; hB-F5) VH: EEQLVESGGGLVKPGGSLRLSCAASGFSFSDCRMYWLRQAPGKGLEWIGVISVKSENYGANYAESVRGRFTISRDDSKNTVYLQMNSLKTEDTAVYYCSASYYRYDVGAWFAYWGQGTLVTVSS VL: DIVLTQSPDSLAVSLGERATINCRASKSVSTSGYSYIYWYQQKPGQPPKLLIYLASILESGVPDRFSGSGSGTDFTLTISSLQAEDVAVYYCQHSRELPWTFGQGTKVEIK
10 % of mB-F5 | humanized B-F5 H37V/L4L (antibody, V domains shown, also called hB-F5) VH: EEQLVESGGGLVKPGGSLRLSCAASGFSFSDCRMYWVRQAPGKGLEWIGVISVKSENYGANYAESVRGRFTISRDDSKNTVYLQMNSLKTEDTAVYYCSASYYRYDVGAWFAYWGQGTLVTVSS VL: DIVLTQSPDSLAVSLGERATINCRASKSVSTSGYSYIYWYQQKPGQPPKLLIYLASILESGVPDRFSGSGSGTDFTLTISSLQAEDVAVYYCQHSRELPWTFGQGTKVEIK
30 % of mB-F5 | humanized B-F5 H37L/L4M IgG1 (BT061) (antibody, V domains shown, also called hB-F5; humanised B-F5) VH: EEQLVESGGGLVKPGGSLRLSCAASGFSFSDCRMYWLRQAPGKGLEWIGVISVKSENYGANYAESVRGRFTISRDDSKNTVYLQMNSLKTEDTAVYYCSASYYRYDVGAWFAYWGQGTLVTVSS VL: DIVMTQSPDSLAVSLGERATINCRASKSVSTSGYSYIYWYQQKPGQPPKLLIYLASILESGVPDRFSGSGSGTDFTLTISSLQAEDVAVYYCQHSRELPWTFGQGTKVEIK
10 % of mB-F5 | humanized B-F5 H37V/L4M (antibody, V domains shown, also called hB-F5) VH: EEQLVESGGGLVKPGGSLRLSCAASGFSFSDCRMYWVRQAPGKGLEWIGVISVKSENYGANYAESVRGRFTISRDDSKNTVYLQMNSLKTEDTAVYYCSASYYRYDVGAWFAYWGQGTLVTVSS VL: DIVMTQSPDSLAVSLGERATINCRASKSVSTSGYSYIYWYQQKPGQPPKLLIYLASILESGVPDRFSGSGSGTDFTLTISSLQAEDVAVYYCQHSRELPWTFGQGTKVEIK
